1 molecule from patent publication US20110318356A1 (Novo Nordisk, published 2011) can be followed below.

What is called Kd is the equilibrium constant for the complex coming apart. By koff is commonly meant the rate constant with which the complex falls apart. Broadly, the kon is a measure of how fast the partners come together.

Assay [1] concerns the target T1, recombinant full length human tissue factor pathway inhibitor (TFPI) (human, UniProt P10646 29-304).
T1 construct: also called TFPI1; human TFPI
Put plainly: SPR (Biacore), recombinant human TFPI. A general note: SPR reads the build-up and loss of mass on a sensor chip optically.

The target of assay [2] is T2, human TFPI short form (1-161 amino acid residues) (human, UniProt P10646 29-189).
T2 construct: also called TFPI161; TFPI (1-161)
Put plainly: SPR (Biacore T-100), mAb immobilised, TFPI161 (K1 and K2 domains).
Experimental: (§1) Binding interaction analysis was obtained by Surface Plasmon Resonance in a Biacore T-100 instrument. Capture of the relevant monoclonal antibody at a fixed concentration was obtained by direct immobilization to a CM5 chip of the mAb to a level of 500-1000 RU in 10 mM sodium acetate pH 4.5-5.0. […] Running and dilution buffer: 10 mM HEPES, 150 mM, 0.005% p20, pH 7.4. Regeneration was obtained by 10 mM Glycine, pH 1.7. Determination of kinetic and binding constants (kₒₙ, koff, KD) was obtained assuming a 1:1 interaction of TFPI and the antibody of interest using the Biacore T100 evaluation software. […] Regeneration of the chip was obtained by 10 mM Glycine, pH 1.7.

For assay [3], the target named is T1, recombinant full length human tissue …. Description: SPR (Biacore T-100), mAb immobilised on CM5 chip, full length human TFPI, 1:1 model.
Experimental: as §1
Assay [4] shares this target. Description: cell-based or functional assay.
For assay [5] the target is unchanged. Description: SPR (Biacore T-100), mAb immobilised, full length human TFPI.
Experimental: as §1
Assay [6] has the same target. Put plainly: cell-based or functional assay. This is another data set of the same source.
Assay [7] shares this target. Description: SPR (Biacore).
Text: The affinity analyses were done using SRP as described below.
These were followed by a direct binding kinetic procedure on selected mAb constructs, with the monoclonal antibody covalently coupled via free amine groups to the carboxymethylated dextrane membrane (CM5) on the sensor chip surface.
For assay [8] the target is unchanged. Put plainly: SPR (Biacore), TFPI.

B1: HzTFPI4F36 (mAbTFPI2021) humanized monoclonal antibody (antibody, human IgG4 S228P, kappa, V domains shown)
VH: EVQLVESGGGLVKPGGSLRLSCAASGFTFSNYAMSWVRQTPEKRLEWVATISRSGSYSYFPDSVQGRFTISRDNAKNSLYLQMNSLRAEDTAVYYCARLGGYDEGDAMDSWGQGTTVTVSS
VL: DIVMTQTPLSLSVTPGQPASISCKSSQSLLESDGKTYLNWYLQKPGQSPQLLIYLVSILDSGVPDRFSGSGSGTDFTLKISRVEAEDVGVYYCLQATHFPQTFGGGTKVEIKR
notes: human kappa/IgG4(S241P); also called mAb2021; mAbTFPI4F36
With B1, the Kd was 0.026 nM in assay [1]; 0.0455 nM in assay [2]; 0.015 nM in assay [3]; 0.015 nM in assay [5]; about 0.025 nM in assay [7]; 0.026 nM in assay [8]. Also, the koff in assay [3] is 3.58e-05 s⁻¹. The kon in assay [3] was 2.39e+06 M⁻¹ s⁻¹. Further, the “IC50, neutralization of TFPI inhibition of FVIIa/TF/FX” value in assay [4] came to 3.8 nM. Moreover, the “IC50, neutralization of TFPI inhibition of FXa” value in assay [6] turned out to be 12.6 nM.
